According to patent US6458760B1, “Method for treating tissue damaged from ischemia” (Henry Ford Health System, priority 1998, dated 2002):

Tested on: rats with middle cerebral artery occlusion
Experiment: Stefin A in rat stroke model, infarcted brain tissue volume
Assay type: in vivo
Settings: compared to animals without inhibitor
Description: The inventors have used a stroke model in rats, explained in more detail hereinbelow, to verify this. In this model, a nylon monofilament is advanced through the vasculature of anesthetized rats until it blocks the middle cerebral artery. The monofilament is left in place for two hours. Withdrawal of the monofilament initiates reperfusion of the ischemic tissue. The extent of damage is visualized seven days after the ischemic event by removing the brain of the animal and examining it in section.
The initial cathepsin inhibitor used by the inventors was a large naturally occurring molecule, stefin A (MW 15,000). In the stroke model, this molecule was administered intraventricularly in some studies prior to the occlusion and intravenously upon reperfusion in others.

B1: stefin A: large naturally occurring molecule (MW 15,000), cathepsin inhibitor, recombinant preparation, used as control (protein, UniProt P01040 1-98, looked up)
Cystatin-A: MIPGGLSEAKPATPEIQEIVDKVKPQLEEKTNETYGKLEAVQYKTQVVAGTNYYIKVRAGDNKYMHLKVFKSLPGQNEDLVLTGYQVDKNKDDELTGF
reduction in the volume of the infarcted brain tissue (administered intravenously upon reperfusion): ~40% | reduction in the volume of the infarcted brain tissue (administered intraventricularly prior to the occlusion): ~40%
